One block for each binder: values may come before it. Positions of bridges follow the written chain, without caps; N, C: chain ends. No end group written: not given here. *: point of attachment. Biotin = O=C1N[C@H]2[C@H](CS[C@H]2CCCCC(=O)*)N1; βAla = NCCC(=O)O
Key:
[1] = target: T1, Prefoldin from Pyrococcus horikoshii (PhPFD-α2β4 heterohexamer, 86.4 kDa) (Pyrococcus horikoshii, UniProt O58263 1-148; O58268 1-117, S98G); test: BLI
T1 sequence 1: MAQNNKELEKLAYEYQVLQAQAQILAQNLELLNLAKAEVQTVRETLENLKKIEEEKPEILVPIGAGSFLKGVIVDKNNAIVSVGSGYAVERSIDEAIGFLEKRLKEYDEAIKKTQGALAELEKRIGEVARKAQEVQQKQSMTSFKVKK
T1 sequence 2: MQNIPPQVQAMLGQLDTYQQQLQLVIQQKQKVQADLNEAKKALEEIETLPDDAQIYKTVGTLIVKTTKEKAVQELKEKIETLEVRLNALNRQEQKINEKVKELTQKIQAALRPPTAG

[2] = target: T1, Prefoldin from Pyrococcus horikoshii …; test: NMR titration

Kd [1]: 16 ± 2.4 µM
B1: biotinylated IAPP (biotinyl-[β-Ala]-[β-Ala]-IAPP-NH2) (peptide)
peptide: {Biotin-βAla-βAla}-KCNTATCATQRLANFLVHSSNNFGAILSSTNVGSNTY-NH2
modifications: disulfide 2-7
SMILES: CC[C@H](C)[C@H](NC(=O)[C@H](C)NC(=O)CNC(=O)[C@H](Cc1ccccc1)NC(=O)[C@H](CC(N)=O)NC(=O)[C@H](CC(N)=O)NC(=O)[C@H](CO)NC(=O)[C@H](CO)NC(=O)[C@H](Cc1c[nH]cn1)NC(=O)[C@@H](NC(=O)[C@H](CC(C)C)NC(=O)[C@H](Cc1ccccc1)NC(=O)[C@H](CC(N)=O)NC(=O)[C@H](C)NC(=O)[C@H](CC(C)C)NC(=O)[C@H](CCCNC(=N)N)NC(=O)[C@H](CCC(N)=O)NC(=O)[C@@H](NC(=O)[C@H](C)NC(=O)[C@@H]1CSSC[C@H](NC(=O)[C@H](CCCCN)NC(=O)CCNC(=O)CCNC(=O)CCCC[C@@H]2SC[C@@H]3NC(=O)N[C@@H]32)C(=O)N[C@@H](CC(N)=O)C(=O)N[C@@H]([C@@H](C)O)C(=O)N[C@@H](C)C(=O)N[C@@H]([C@@H](C)O)C(=O)N1)[C@@H](C)O)C(C)C)C(=O)N[C@@H](CC(C)C)C(=O)N[C@@H](CO)C(=O)N[C@@H](CO)C(=O)N[C@H](C(=O)N[C@@H](CC(N)=O)C(=O)N[C@H](C(=O)NCC(=O)N[C@@H](CO)C(=O)N[C@@H](CC(N)=O)C(=O)N[C@H](C(=O)N[C@@H](Cc1ccc(O)cc1)C(N)=O)[C@@H](C)O)C(C)C)[C@@H](C)O

Kd [2]: 61 µM
koff [2]: ~6000 s⁻¹
Binder: KCNTATCATQRLANFLVHSSNNFGAILSSTNVGSNTY (ends and bridges not checked; also: uniformly [15N]-labelled) [U-[15N]-labelled human islet amyloid polypeptide (IAPP), recombinant, monomeric]

Source: paper doi:10.1101/2021.10.20.465084 (bioRxiv, 2021)
